These results are taken from article PMC2805716, “Critical Structural and Functional Roles for the N-Terminal Insertion Sequence in Surfactant Protein B Analogs” (PLoS ONE, 2010).

For series [1] the following is noted: ESR, ref [30], cited from earlier work. The source says: Although the “10 nsec” MD simulation of dimer S-MB provides a reasonable framework to account for our SDS-PAGE and SPR results (Figs. 8 and 10), it is worthwhile to consider other structural models by which the N-terminal insertion sequence may promote the self-association of S-MB. One possible alternative is that oligomeric S-MB may be due to the N-terminal sequence (residues 1-7) forming β-sheet. The N-terminal SP-B(1–9) (Fig. 2) was earlier proposed to act as a ‘biochemical Velcro®,’ facilitating in vivo either the aggregation of SP-B or the interactions of SP-B with SP-C [50]. In support ...

For series [2] the following is noted: lipid monolayers containing palmitic acid; ref [31], [32]; cited from earlier work. The source says:
(§1) Previous structural and functional studies with synthetic peptides representing the N- and C-terminal regions of SP-B further support the hypothesis that these charged amphipathic helices participate in surfactant activities. […] The cationic N-terminus of SP-B may here interact with anionic lipids to remove the driving force for lipid squeeze-out from the surface film, [32]. In additional studies, SP-B(1–25 ...

Series [3] concerns surfactant-deficient animal models. Particulars: ref [34]–[37]; cited from earlier work.
Description: as §1

Series [4] deals with the molecule itself. Put plainly: SDS-PAGE; 4 µg peptide in 8 µl buffer (50 mM MOPS, 50 mM Tris, pH 7.7, 0.1% SDS, 1 mM EDTA), neither heated nor reduced; 16% acrylamide gel; Coomassie blue and silver staining; molecular weight markers 2.5-16.9 kDa.
Series [5] addresses T1, Cys-MB (Mini-B with a cysteine added to its N-terminus, chip-linked) (human).
T1 construct: cysteine added to the N-terminus to link the peptide to the thiol Biacore chip; surfactant protein B (SP-B), human, residues 8-25; numbers count on: the mature protein (79 residues); surfactant protein B (SP-B), human, residues 63-78; Immobilised on the SPR chip; also called chipped MB; N-terminal Cys-MB
T1 chain: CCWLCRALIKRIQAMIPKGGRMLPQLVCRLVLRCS
Put plainly: SPR; Biacore 3000; Cys-MB or Cys-S-MB linked to a thiol chip; MB or S-MB at 1 µg peptide/ml in HBS-EP (10 mM Hepes, pH 7.4, 150 mM NaCl, 3 mM EDTA, 0.005% surfactant P20) flowed over at 50 µl/min, 37°C; constants from curve fitting at the one concentration. The following applies: both partners purified. In general terms: In SPR one partner is held on a chip, and binding of the other changes the refractive index at the surface.

The target in series [6] is T2, Cys-S-MB (Super Mini-B with a cysteine added to its N-terminus, chip-linked) (human).
T2 construct: cysteine added to the N-terminus to link the peptide to the thiol Biacore chip; surfactant protein B (SP-B), human, residues 1-25; numbers count on: the mature protein (79 residues); surfactant protein B (SP-B), human, residues 63-78; Immobilised on the SPR chip; also called chipped S-MB; N-terminal Cys-S-MB
T2 chain: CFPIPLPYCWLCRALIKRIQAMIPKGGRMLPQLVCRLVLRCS
Described as above. The following applies: both partners purified.

Consider “SP-B(1–25): synthetic peptide based on the N-terminal domain of SP-B, residues 1–25 (FPIPLPYCWLCRALIKRIQAMIPKG; Pulmonary surfactant-associated protein B; UniProt P07988 201-225, looked up, fragment)”, for which the aggregation entry in series [1] (PBS, spin-labeled at Phe-1) is “primarily aggregated in PBS”. Further, the “aggregation upon addition of SDS micelles” value in series [1] (SDS micelles added) is listed as “addition of SDS micelles rapidly dissociated these SP-B(1–25) aggregates”. Further, the “collapse pressure of lipid monolayers” value in series [2] is “increase the collapse pressure”. The “oxygenation and lung compliance” value in series [3] was “improved oxygenation and lung compliance”.

B1: Super Mini-B (peptide)
chain: FPIPLPYCWLCRALIKRIQAMIPKGGRMLPQLVCRLVLRCS
notes: numbers count on: the mature protein (79 residues); surfactant protein B (SP-B), human, residues 63-78 (C-terminal helix region); the split into the two SP-B stretches follows the stated ranges (1-7 plus 8-25, and 63-78); Oxidised form with intramolecular disulfides Cys-8 to Cys-40 and Cys-11 to Cys-34; also called S-MB; SMB; source: synthetic peptide (Fmoc solid phase, HPLC-purified, …)
For orientation: stoichiometry N means a count of units in the complex or per binding partner. For orientation: Kd means the free concentration of one partner at which half of the binding sites on the other are occupied at equilibrium, for simple one-to-one binding. Usually koff stands for the first-order rate constant of dissociation. Usually kon stands for the second-order rate constant of association. A higher kon goes with faster complex formation. As to B1, in series [4], the “stoichiometry N” value was determined as 2. In series [5], this molecule showed a Kd of 52.1 nM, a koff of 0.00736 s⁻¹ and a kon of 141000 M⁻¹ s⁻¹. In series [6], this molecule came in with a Kd of 20.1 nM, a koff of 0.000901 s⁻¹ and a kon of 44700 M⁻¹ s⁻¹.

B2: SP-B: 79 amino acids, lipid-associating lung protein, covalently linked homodimer (protein, UniProt P07988 201-279, looked up)
Pulmonary …: FPIPLPYCWLCRALIKRIQAMIPKGALAVAVAQVCRVVPLVAGGICQCLAERYSVILLDTLLGRMLPQLVCRLVLRCSM
modifications: Pulmonary surfactant-associated protein B
notes: 79 amino acids, lipid-associating lung protein, covalently linked homodimer
Consider B2, for which, in series [2], the “collapse pressure of lipid monolayers” value is reported as “increase the collapse pressure”.
